Measured values from patent US20250066498A1 (GO THERAPEUTICS, published 2025).
Ends that are not written are not given here. GalNAc = N-acetylgalactosamine O-linked to a serine or threonine side chain

T1: podoplanin glycopeptide ERGTKPPLEELSGK
T1 construct: also called PDPN glycopeptide; Tn antigen derived from podoplanin
T1 peptide: ERGT(GalNAc)KPPLEELSGK

T2: LAMP1-Tn peptide Biotin-CEQDRPSPTTAPPAPPSPSP (human, N-terminal biotin; O-linked GalNAc on the serine at position 7 and the threonines at positions 9 and 10)
T2 construct: Synthetic 20-mer glycopeptide made by FMOC synthesis; also called LAMP1 glycopeptide; glycosylated LAMP1 peptide
T2 peptide: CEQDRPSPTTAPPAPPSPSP

T3: LAMP1-Tn (T1) peptide Biotin-CEQDRPSPTTAPPAPPSPSP (human, N-terminal biotin; GalNAc on one threonine (label 'T1'). By the order of items in paragraph 452 and paragraph 453 this is the threonine at position 9)
T3 construct: Singly glycosylated form of the LAMP1 20-mer
T3 peptide: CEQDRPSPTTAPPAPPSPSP


Experiments:
[1] = target: T1, podoplanin glycopeptide ERGTKPPLEELSGK; experiment: BLI (Octet), peptide on biosensor, apparent affinity (Example 3)
Method: (§1) Antibody affinity and epitope binning of monoclonal antibodies can be assessed against specific antigens using BLI. […] The affinity is determined by fitting the binding curve to a specific model: a 1:1 monovalent model or a 2:1 bivalent model. The error (>95% confidence) is calculated by how close the generated curve matches the model.
(§2) To characterize the cross-reactivity between mAb237 the anti-glyco-LAMP1 antibodies 3C7, 13C3, and 13G2, the affinities of mAb237, 3C7, 13C3, and 13G2 against the glycosylated LAMP1 peptide, the unglycosylated LAMP1 peptide, and the podoplanin glycopeptide were determined by Octet. Table 8 summarizes the dissociation constants (Kd) for mAb237, 3C7, 13C3, and 13G2 against the glycosylated LAMP1 peptide, the unglycosylated LAMP1 peptide, and the podoplanin glycopeptide. No cross reactivity was observed despite the sequence similarities observed between mAb237 and 3C7, 13C3, and 13G2.

[2] = target: T2, LAMP1-Tn peptide …; experiment: BLI (Octet), peptide on biosensor, apparent affinity
[3] = target: T3, LAMP1-Tn (T1) peptide …; experiment: as above
[4] = target: T2, LAMP1-Tn peptide …; experiment: SPR (Biacore), antibody immobilised, peptide as analyte
Method: Antibody affinity assays can be carried out using surface plasmon resonance (e.g., using a Biacore system (Cytiva)). […] The affinity is determined by fitting the binding curve to a specific model: kinetic fit (1:1 model) or if applicable heterogenous ligand binding model.
To characterize the binding specificities of 3C7, 13C3, and 13G2 for non-glycosylated and Tn-glycosylated LAMP1, flow cytometry analysis of the LAMP1 mouse antibodies on T47D COSMC-KO cells was performed. […] The affinities of 3C7, 13C3, and 13G2 against the LAMP1 glycopeptides were determined by Biacore and Octet. Table 7 summarizes dissociation constants (Kd) for 3C7, 13C3, and 13G2 against different glycoforms of LAMP1 peptide, as well as unglycosylated LAMP1 and MUC1-Tn.

[5] = target: T2, LAMP1-Tn peptide …; experiment: BLI (Octet), peptide on biosensor, apparent affinity (Example 3)
Method: as §1, §2

| Kd [1] [nM] | Kd [2] [nM] | Kd [3] [nM] | Kd [4] [nM] | Kd [5] [nM] | Binder |
| --- | --- | --- | --- | --- | --- |
| 1.53 | – | – | – | – | mAb237 (antibody, V domains shown, Recombinant mouse antibody bought from Creative Biolabs (Brooks et al., 2010), specific for the podoplanin Tn glycopeptide; also called wild type mAb237) VH: QVQLQQSGGGLVQPGGSMKIFCAASGFTFSDAWMDWVRQSPEKGLEWVAEIRNKANNHETYYAESVKGRFTITRDDSKSRMSLQMNSLRAEDTGIYYCSGGKVRNAYWGQGTTVTVSS VL: DIQLTQTPLSLPVSLGDQASISCRSSQSLVHSVGNTYLHWYLQKPGQSPKLLIYKVSNRFSGVPDRFSGSGSGTDFTLKISSVEAEDLGVYFCSQSTHVPTFGGGTKLEIK |
| – | 18.2 | 810 | 28.7 | 13.9 | 3C7.2C11.1C9 (antibody, V domains shown, Mouse monoclonal antibody from a hybridoma (Balb/c mice immunised with KLH-LAMP1-Tn glycopeptide)) VH: EVKLEESGGGLVQPGGSMKVSCGASGFTFSDAWMDWVRQSPEKGLEWVAEMRSKAFNHAIYYAESVKGRFTISRDDSKSRVYLQMNLLRPEDTGIYYCTPNWDEGFAYWGQGTLVTVSA VL: DVMLTQTPLSLPVSLGDQASISCRSSQSLVHSNGNTYLHWYLQKPGQSPKLLINKVSNRFFGVPDRFSGSGSGTDFTLKISRVEAEDLGVYFCSQSTHVPRTFGGGTKLEIK |
